According to article PMC7083832, “Structural analysis of TIFA: Insight into TIFA-dependent signal transduction in innate immunity” (Scientific Reports, 2020):
Changes are numbered by the printed parent chain. In names and notes the source's numbering stands. Several values for one entry are separate records, joined by “and”; a condition that tells them apart may be missing. Identical values can stand only once.

B1: full-length mouse TIFA (TRAF-interacting protein with a forkhead-associated (FHA) domain) (natural protein, UniProt Q793I8 1-184, looked up)
chain: MSTFEDADTEETVTCLQMTIYHPGQQSGIFKSIRFCSKEKFPSIEVVKFGRNSNMCQYTFQDKQVSRIQFVLQPFKQFNSSVLSFEIKNMSKKTSLMVDNQELGYLNKMDLPYKCMLRFGEYQFLLQKEDGESVESFETQFIMSSRPLLQENNWPTQNPIPEDGMYSSYFTHRSSPSEMDENEL
notes: TIFA, mouse, full length, 184 amino acids, GenBank BAB86903.1; A SeMet form (E. coli B834(DE3)) was used only for phasing; also called wildtype TIFA; native TIFA; not shown: His tag, C-terminal, kept
B2: mouse TIFA E39R/E138R mutant (natural protein, UniProt Q793I8 1-184, looked up)
chain: B1 chain with E39R, E138R
notes: TIFA, mouse, full length, 184 amino acids, GenBank BAB86903.1, with E39R and E138R; source: E. coli BL21(DE3), pET-30b(+), purified by nearly the same procedure as for native TIFA
B3: mouse TIFA T9D/C36S mutant (natural protein, UniProt Q793I8 1-184, looked up)
chain: B1 chain with T9D, C36S
notes: TIFA, mouse, full length, 184 amino acids, GenBank BAB86903.1, with T9D (phosphomimetic) and C36S; Dimers assemble into a hexamer in the crystal; source: E. coli BL21(DE3), pET-30b(+), purified by nearly the same procedure as for native TIFA
B4: mouse TIFA T9E/C36S mutant (natural protein, UniProt Q793I8 1-184, looked up)
chain: B1 chain with T9E, C36S
notes: TIFA, mouse, full length, 184 amino acids, GenBank BAB86903.1, with T9E (phosphomimetic) and C36S; source: E. coli BL21(DE3), pET-30b(+), purified by nearly the same procedure as for native TIFA
B5: mouse TIFA E39R/E45R/E138R mutant (natural protein, UniProt Q793I8 1-184, looked up)
chain: B1 chain with E39R, E45R, E138R
notes: TIFA, mouse, full length, 184 amino acids, GenBank BAB86903.1, with E39R, E45R and E138R; source: E. coli BL21(DE3), pET-30b(+), purified by nearly the same procedure as for native TIFA
B6: mouse TRAF6-C containing a part of coiled-coil domain (amino acid residues from 326 to 516) (domain or fragment, UniProt P70196 326-516, looked up)
chain: AKMETQSMYVGELKRTIRTLEDKVAEMEAQQCNGIYIWKIGNFGMHLKSQEEERPVVIHSPGFYTGRPGYKLCMRLHLQLPTAQRCANYISLFVHTMQGEYDSHLPWPFQGTIRLTILDQSEALIRQNHEEVMDAKPELLAFQRPTIPRNPKGFGYVTFMHLEALRQGTFIKDDTLLVRCEVSTRFDMGGL
notes: TRAF6, mouse, residues 326-516: part of the coiled-coil domain and the C-terminal TRAF (TRAF-C) domain; also called TRAF-C domain of TRAF6; not shown: His tag, C-terminal, kept

Legend:
[1] = biological target: B6; assay: SEC; TIFAs and TRAF6-C mixed at a molar ratio of 1:1 (monomer:monomer); Superdex 200; 20 mM Tris pH 8.0, 500 mM NaCl, 2 mM EDTA, 1 mM β-mercaptoethanol; details: both partners purified
[2] = biological target: the molecule itself; assay: crystal structure; hanging-drop vapour diffusion, reservoir 0.1 M MES pH 6.4, 5% (v/v) MPD (native TIFA; T9E/C36S under a similar condition); data at 100 K
[3] = biological target: the molecule itself; assay: SEC; each protein alone; Superdex 200; 20 mM Tris pH 8.0, 500 mM NaCl, 2 mM EDTA, 1 mM β-mercaptoethanol
[4] = biological target: the molecule itself; assay: crystal structure; reservoir 0.1 M sodium citrate pH 5.3, 40% (v/v) PEG400 (T9D/C36S); data at 100 K

binding result [1] | Binder | stoichiometry N [2] | binding result [3] | stoichiometry N [4] | stoichiometry N [3]
binds | B1 | 2 | – | – | –
binds | B2 | – | binds | – | –
binds | B3 | – | – | 2 and 6 | –
binds | B4 | 2 | – | – | –
binds | B5 | – | binds | – | –
– | B6 | – | – | – | 3
